In publication PMC314469, “Protein Interaction Networks by Proteome Peptide Scanning” (PLoS Biology, 2004):

Target: T1, Myo5 SH3 (MYO5_YEAST), Q04439
T1 chain: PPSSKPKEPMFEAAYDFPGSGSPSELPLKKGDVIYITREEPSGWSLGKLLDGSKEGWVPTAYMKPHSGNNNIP
Test: SPOT array

Binder	normalised SPOT signal, Boehringer light units (BLU); mean over the file's lines of this peptide
QLIGFGNPKNPFAL [YIL151C 523-536]	46.1
QLRSLFKPFGPILN [YBR212W 375-388]	370
QLVTLISPYDPNFK [YJR119C 479-492]	178
QPAQFMPPQDPAAA [YIL109C 25-38]	134
QPAQLQEPQEPLST [YMR148W 78-91]	126
QPQAYHLPGNPYST [YNL278W 921-934]	187
QPQHLPPPPPPRAQ [YOR329C 661-674]	76200
QPTNFQYPPPPFGQ [YNL124W 379-392]	224
RAAGMDVPIIPGIM [YGL125W 205-218]	98.2
REASLDIPYKPIIA [YFL011W 32-45]	176
REDAHEDPVSPKAG [YOL082W 127-140]	145
REFEFIIPVFPVIS [YDL233W 197-210]	163
REVDLPIPAQPGPP [YDR236C 34-47]	114
RFHVFSEPILPSVA [YOR160W 693-706]	158
RLFDLVKPKNPKFS [YLR086W 763-776]	441
RLLALFIPALPFII [YEL065W 193-206]	265
RLNSFAPPPNPYAT [YDL195W 847-860]	274
RLQKLDDPKSPYQS [YDL205C 162-175]	127
RLSLLRSPKAPDAH [YGL156W 915-928]	442
RLTNFEVPSLPTFH [YIL037C 447-460]	319

Binder	normalised SPOT signal, Boehringer light units (BLU); mean over the file's lines of this peptide
RLWLYAAPKRPKTF [YMR156C 129-142]	845
RPPSHSAPYIPRSS [YDR132C 184-197]	47400
RPQWLSYPEQPLNS [YBL088C 912-925]	241
RPSKFFHPPIPHIP [YOR235W 5-18]	777
SAENLIQPTAPIRD [YIR029W 44-57]	56.4
SAFPYVFPLPPWIP [YFL006W 181-194]	13000
SANNYPFPQQPNGM [YNL124W 356-369]	79.6
SASTMAAPVHPQQQ [YMR002W 21-34]	164
SATGWLKPAVPIQW [YGL065C 374-387]	94.6
SAYYLGLPVTPEDM [YOL057W 181-194]	215
SELTFIAPTQPVST [YPL101W 254-267]	110
SELYYEGPETPTPS [YPL186C 118-131]	50.5
SENRLRTPLKPLVN [YGL021W 219-232]	272
SENYLVKPTIPGTT [YDL035C 918-931]	61.5
SETSHHSPSAPFQR [YLL016W 216-229]	257
SFDYLFHPFVPSTI [YPR039W 3-16]	23.1
SFRELWQPVDPSRE [YLR301W 124-137]	97.3
SFRKLASPSNPNFF [YMR036C 409-422]	209
SFTPFNRPSDPSNG [YPL066W 70-83]	208
SFTRMPLPTPPIEG [YGL235W 82-95]	287

Binder	normalised SPOT signal, Boehringer light units (BLU); mean over the file's lines of this peptide
SFVGFPKPLLPRNH [YHR082C 909-922]	205
SFVHLTEPSQPLSD [YOR032C 362-375]	99.7
SLAVYNIPLFPDDP [YLL002W 276-289]	91.7
SLSALVGPVIPHTI [YMR177W 252-265]	28.4
SLDNFYNPLGPEDR [YNR012W 89-102]	143
SLFPLKTPISPGTS [YOR106W 114-127]	239
SLISMETPEQPHQQ [YAL047C 546-559]	147
SLLIHSLPRKPLLM [YGL104C 357-370]	314
SLQQFYNPESPIQP [YOR155C 390-403]	131
SLTSLPPPPPPQFS [YPL014W 217-230]	7260
SLVKFSSPMTPLLE [YHR072W 246-259]	249
SPFSLFIPTIPATT [YNL043C 79-92]	152
SPFTFLFPFLPTII [YER017C 223-236]	366
SPKFLNSPDLPERT [YDL225W 441-454]	183
SPKKHVSPSRPPSV [YAL028W 272-285]	1430
SPKKLASPRTPNAN [YKR077W 157-170]	276
SPKPFSKPQEPVKA [YCR088W 389-402]	359
SPLSWSGPLTPPTF [YNL243W 594-607]	168
